Key:
Details in all cases: LightShift Chemiluminescent EMSA kit (binding buffer, salt and pH not given), 20 min room temperature; 20 fmol probe, 6% 0.5x TBE gel (TtdV/TtdW); 50 fmol …
[1] = test system: T1, His6-ArcA (unphosphorylated) (Salmonella enterica serovar Typhimurium IR715 (ATCC14028 NalR)), ORF:c309dbee; assay: EMSA
T1 sequence: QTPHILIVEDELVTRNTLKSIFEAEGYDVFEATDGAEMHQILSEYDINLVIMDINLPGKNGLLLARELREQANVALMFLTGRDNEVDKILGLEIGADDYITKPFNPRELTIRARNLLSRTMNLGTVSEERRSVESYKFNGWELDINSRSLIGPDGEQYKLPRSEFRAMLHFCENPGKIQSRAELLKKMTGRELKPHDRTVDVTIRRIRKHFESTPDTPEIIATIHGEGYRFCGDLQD

[2] = test system: T2, His6-ArcA~P (Salmonella enterica serovar Typhimurium IR715 (ATCC14028 NalR)), ORF:c309dbee; assay: EMSA
T2 sequence: T1 sequence

[3] = molecular target: T3, TtdV-His6 (Salmonella enterica serovar Typhimurium IR715 (ATCC14028 NalR)) (UniProt Q8ZLP8); assay: EMSA
T3 sequence: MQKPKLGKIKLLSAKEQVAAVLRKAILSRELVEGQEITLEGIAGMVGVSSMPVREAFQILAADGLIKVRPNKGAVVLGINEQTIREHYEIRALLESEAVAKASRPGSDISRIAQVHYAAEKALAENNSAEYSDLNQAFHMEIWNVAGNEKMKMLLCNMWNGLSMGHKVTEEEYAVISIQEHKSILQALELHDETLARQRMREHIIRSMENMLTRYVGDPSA

[4] = test system: T2, His6-ArcA~P (Salmonella enterica serovar Typhimurium IR715 (ATCC14028 NalR)), ORF:c309dbee; assay: competition
[5] = molecular target: T4, TtdW-His6 (Salmonella enterica serovar Typhimurium IR715 (ATCC14028 NalR)) (UniProt Q8ZLP7); assay: competition
T4 sequence: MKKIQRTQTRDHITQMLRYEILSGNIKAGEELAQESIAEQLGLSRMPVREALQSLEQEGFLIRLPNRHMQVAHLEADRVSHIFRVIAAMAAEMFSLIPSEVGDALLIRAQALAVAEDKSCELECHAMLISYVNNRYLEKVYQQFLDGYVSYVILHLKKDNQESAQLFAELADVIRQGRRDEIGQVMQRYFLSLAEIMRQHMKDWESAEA

[6] = molecular target: T4, TtdW-His6 (Salmonella enterica serovar Typhimurium IR715 (ATCC14028 NalR)); assay: EMSA

Row | Sequence | binding [1] | binding [2] | binding [3] | binding [4] | binding [5] | binding [6]
1 | ACCGAAGAAGAGTATGCCGTGATTTCCATTCAGGAACATAAAAGTATTCTGCAAGCTCTTGAACTTCATGATGAAACATTGGCACGCCAGCGCATGCGCGAACACATTATTCGCTCAATGGAGAATATGCTGACCCGCTATGTTGGTGACCCTTCTGCCTGATCTTTTCGCCTGCGTGAGCATCGCAGGCGCTTCAACCAATTCTTCAATTCTATTAATCACGTCCAGTAACGATCTAACCACGATCTTGATGTAGC (double strand) [Probe 3] | binds | binds | no binding | – | – | –
2 | CCTAACTCGGCGGAATACTCCGACCTGAATCAGGCATTTCATATGGAAATATGGAATGTTGCTGGCAACGAAAAAATGAAAATGTTGCTCTGTAATATGTGGAACGGCCTGTCGATGGGCCATAAGGTCACCGAAGAAGAGTATGCCGTGATTTCCATTCAGGAACATAAAAGTATTCTGCAAGCTCTTGAACTTCATGATGAAACATTGGCACGCCAGCGCATGCGCGAACACATTATTCGCTCAATGGAGAATATGCTGACCCGCTATGTTG (double strand) [Probe 2] | binds | binds | no binding | – | – | –
3 | CGTATGCTGACCCGCTATGTTGGTGACCCTTCTGCCTGATCTTTTCGCCTGCGTGAGCATCGCAGGCGCTTCAACCAATTCTTCAATTCTATTAATCACGTCCAGTAACGATCTAACCACGATCTTGATGTAGATCCCACTCCTGCATCTTTCCTGAGAAACGATTTGACTTAGTTTTTGTATGGGAATAATTTCTCCCTGTCAACATTGGATACAATATCATATATCATTGATTGGATAATTATAAATATGGAACCCATTACCCTTACCTTATGTTTATTGGTGTTCGCCC (double strand) [Probe 4 unlabeled competitor] | – | – | – | binds | binds | –
4 | CGTATGCTGACCCGCTATGTTGGTGACCCTTCTGCCTGATCTTTTCGCCTGCGTGAGCATCGCAGGCGCTTCAACCAATTCTTCAATTCTATTAATCACGTCCAGTAACGATCTAACCACGATCTTGATGTAGATCCCACTCCTGCATCTTTCCTGAGAAACGATTTGACTTAGTTTTTGTATGGGAATAATTTCTCCCTGTCAACATTGGATACAATATCATATATCATTGATTGGATAATTATAAATATGGAACCCATTACCCTTACCTTATGTTTATTGGTGTTCGCCC (double strand) [Probe 4] | binds | binds | – | – | – | binds
5 | GCCTTCTTCGGTGACCTTATGGCCCATCGACAGGCCGTTCCACATATTACAGAGCAACATTTTCATTTTTTCGTTGCCAGCAACATTCCATATTTCCATATGAAATGCCTGATTCAGGTCGGAGTATTCCGCCGAGTTATTTTCCGCGAGAGCCTTTTCAGCGGCATAATGCACCTGGGCTATCCGCGAGATATCGGAGCCAGGACGAGAAGCTTTAGCCACCGCCTCACTTTCTAACAGCGCGCGAATTTCATAGTGTTCACGGATGG (double strand) [Probe 1] | binds | binds | no binding | – | – | –
